Experimental data published in publication PMC7060199, “DJ-1 suppresses ferroptosis through preserving the activity of S-adenosyl homocysteine hydrolase” (Nature Communications, 2020).

Assays:
[1] = target: the molecule itself; experiment: cross-linking; cells incubated with 2 mM DSS for 30 min at 25 C, quenched with 1 M Tris-HCl pH 7.4; western blot; control and DJ-1 KD
[2] = target: the molecule itself; experiment: not stated; HEK293T cells with DJ-1 overexpression (Supplementary Fig. 6j)

Row | Protein | stoichiometry N [1] | stoichiometry N [2]
1 | S-adenosyl homocysteine hydrolase (enzyme, human (endogenous in H1299), UniProt P23526 1-432, looked up, S-adenosyl homocysteine hydrolase (SAHH) of H1299 cells; also called SAHH; source: H1299 cell lysate (control KD and DJ-1 KD)) MSDKLPYKVADIGLAAWGRKALDIAENEMPGLMRMRERYSASKPLKGARIAGCLHMTVETAVLIETLVTLGAEVQWSSCNIFSTQDHAAAAIAKAGIPVYAWKGETDEEYLWCIEQTLYFKDGPLNMILDDGGDLTNLIHTKYPQLLPGIRGISEETTTGVHNLYKMMANGILKVPAINVNDSVTKSKFDNLYGCRESLIDGIKRATDVMIAGKVAVVAGYGDVGKGCAQALRGFGARVIITEIDPINALQAAMEGYEVTTMDEACQEGNIFVTTTGCIDIILGRHFEQMKDDAIVCNIGHFDVEIDVKWLNENAVEKVNIKPQVDRYRLKNGRRIILLAEGRLVNLGCAMGHPSFVMSNSFTNQVMAQIELWTHPDKYPVGVHFLPKKLDEAVAEAHLGKLNVKLTKLTEKQAQYLGMSCDGPFKPDHYRY | 4 | –
2 | SAHH in HEK293T cells (enzyme, UniProt P23526 1-432, looked up, S-adenosyl homocysteine hydrolase (SAHH) in HEK293T cells with DJ-1 overexpression; source: HEK293T cells) MSDKLPYKVADIGLAAWGRKALDIAENEMPGLMRMRERYSASKPLKGARIAGCLHMTVETAVLIETLVTLGAEVQWSSCNIFSTQDHAAAAIAKAGIPVYAWKGETDEEYLWCIEQTLYFKDGPLNMILDDGGDLTNLIHTKYPQLLPGIRGISEETTTGVHNLYKMMANGILKVPAINVNDSVTKSKFDNLYGCRESLIDGIKRATDVMIAGKVAVVAGYGDVGKGCAQALRGFGARVIITEIDPINALQAAMEGYEVTTMDEACQEGNIFVTTTGCIDIILGRHFEQMKDDAIVCNIGHFDVEIDVKWLNENAVEKVNIKPQVDRYRLKNGRRIILLAEGRLVNLGCAMGHPSFVMSNSFTNQVMAQIELWTHPDKYPVGVHFLPKKLDEAVAEAHLGKLNVKLTKLTEKQAQYLGMSCDGPFKPDHYRY | – | 4
